System: MS2 coat protein
Test: apparent KD of MS2 coat protein; designed switch direction (-1 OFF switch, 1 ON switch): -1; higher = weaker reporter binding
Method in brief: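 Each step of the titration lasted 0.8–1.5 h at the lowest concentration and 10–20 min at the highest. The protein, SNAP-549-labelled MS2 coat protein, went from 0.7 or 1.5 nM doubling to 3 µM over RNA switches transcribed on Illumina chips by stalled E. coli RNA polymerase. Normalised cluster fluorescence was curve-fitted, and the per-design median over clusters is given as apparent KD.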

[1] = Eterna round: R95, input ligand: FMN 200 uM
[2] = Eterna round: R95, input ligand: microRNA oligo, concentration not stated
[3] = Eterna round: R95, input ligand: none
[4] = input ligand: microRNA oligo, concentration not stated

Sequence | apparent KD of MS2 coat protein [1] | apparent KD of MS2 coat protein [2] | apparent KD of MS2 coat protein [3] | apparent KD of MS2 coat protein (input ligand: FMN 200 uM) | apparent KD of MS2 coat protein (input ligand: none) | apparent KD of MS2 coat protein [4]
AGAAGUAGAAACCGAUCCUACAUGAGGAUCACCCAUGUAGCAAGACGUGCACGCGAAGCUCGUCAGACUACCAGACG [salish99_TOv1_r3_019] (puzzle: Sensor v3, turn-off variant 1) | 152 nM | 175 nM | 249 nM |  |  | 
CCGAAUAAGCAGGAUAUCGUAUCGGAAACGAUACGAGAAGGGCUAACAUGAGGAUCACCCAUGUUCCUUAACGG [Fiskers Ex 6 - 15] (puzzle: Exclusion 6) |  | 19.2 nM |  |  |  | 
GUAGAGUAAGGAUAUGGUGAAUAGGAUAGAAUGGUUAGAAACCAGAAGGUACAUGAGGAUCACCCAUGUAAUGU [Excluse me!!!! 16 - Jieux - Exclusion 4] (puzzle: Exclusion 4) |  | 20.2 nM |  |  |  | 
GGUCCACAUGAGGAUCACCCAUGUGAGGAUAUGCAGCGGGAGCCGCCGCCGAACCGAUGUAGAAGGCACACCUG [Eternabot (Original) Solution 19] (Eterna round: R97, puzzle: Exclusion 1) |  |  |  | 19 nM | 20.4 nM | 
UUUUAACAUGAGGAUCACCCAUGUGAGGAUAUCGUAUUUUUUAUUAAUAUUAAUAAAACGAGAAGGCACAUUUU [JMF 17] (Eterna round: R96, puzzle: Exclusion 1) |  |  |  | 96.9 nM | 65.5 nM | 51.4 nM
AGCCACAGAGGAUAUACAUACAUCCAGUAGUUAAGAAUACAACAUGAGGAUCACCCAUGUAGAAGGCUGUGGCA [Omei Ex2 BD B9] (Eterna round: R97, puzzle: Exclusion 2) |  |  |  | 348 nM | 103 nM | 
CCUGUACAUGAGGAUCACCCAUGUUAGGAUAUUCAGCCCGUCGAGUAUAAGGGUUUAAGAAGAAGGGACGUGGC [Beanused] (puzzle: Exclusion 1) |  | 13.9 nM |  |  |  | 
GCUCGCGGGCAAGGAUAUCCCACGCUGUUCUGGCCCGUGUCUGUUACAUGAGGAUCACCCAUGUGGGAGAAGGUGCACCAGGGC [Design 45] (Eterna round: R96, puzzle: Exclusion NG 2) |  |  |  | 115 nM | 44.1 nM | 26.8 nM
AACCAGCGAGGAUAUUGUCGGUACAACAUGAGGAUCACCCAUGUCACGUGAUCUUCCCAACAAGAAGGUGCACUAC [Axeedesza] (Eterna round: R97, puzzle: Exclusion 5) |  |  |  | 324 nM | 272 nM | 
UGUUGUCGCGCAGGAUAUGAGGAUCACCCAUAUCAGGAUAUCGAAAGAGAAGUUCUGAGGAUCACCCAGAAGGGCGGGACAACU [pwkr exNG2 2xF5 2xFMN.33] (Eterna round: R96, puzzle: Exclusion NG 2) |  |  |  | 342 nM | 47.8 nM | 38 nM
ACAUGAGGAUCACCCAUGUGACAAGAAUGGCUGAUAAAGAGACAGGAUAUAGGUGCAUAUCUAACCUAGAAGGGUCAUGACUGG [Deportation 74 - Jieux - Exclusion NG 3] (Eterna round: R96, puzzle: Exclusion NG 3) |  |  |  | 38.5 nM | 38.1 nM | 28.3 nM
GUCUCACAUGAGGAUCACCCAUGUGAGGAUAUGGUUUCGCUGGCCGUAGCCAGUGGAACCAGAAGGCGCGUGAU [Mat - Exclusion 1 - JL Mod - D18] (Eterna round: R97, puzzle: Exclusion 1) |  |  |  | 71.1 nM | 65 nM | 
UUCCGCCUAGGAUAUUGGAUACUCUACAUGAGGAUCACCCAUGUGAGCAUGAAAGAUAUCCAAGAAGGAGGUAGCC [Eternabot (L2) Solution 68] (Eterna round: R97, puzzle: Exclusion 5) |  |  |  | 16.7 nM | 14.6 nM | 
AUUUAGAGAGGAUAUAUAUUGUGAAACAUGAGGAUCACCCAUGUAAUAAUAUGGAUGUAAAUAGAAGGCUCAUUUU [Mat - Exclusion 5 - JL mod - D10] (puzzle: Exclusion 5) | 40.2 nM | 37.4 nM | 41.8 nM |  |  | 
UUCCGGCGUGUAGGAUAUGGUUCCGUUUCGGUUCCAGAAGGACAUGAGGAUCACCCAUGUGCCUGUCGUCGGUCGUCACCGGGC [salish99_ExNG1_r04_219] (Eterna round: R96, puzzle: Exclusion NG 1) |  |  |  | 22.3 nM | 15.3 nM | 13.3 nM
UCACGGGACUGAGGAUAUACAUUUAUUAUUUUUGUAGAAGGCAGAAUGUUAGUUUUUUCACUAUACAUGAGGAUCACCCAUGUU [JR_ExcNG1_Sub084] (Eterna round: R96, puzzle: Exclusion NG 1) |  |  |  |  |  | 20.6 nM
UAGCCCAACUCAUCCUCAUUGAGACAUGAGGAUCACCCAUGUGAGGAUAUUGCGUCGAGAGGACACGAGAAGGCACAAUAGUUU [Eternabot solution 17] (Eterna round: R96, puzzle: Exclusion NG 3) |  |  |  | 216 nM | 109 nM | 88.1 nM

Sequence | apparent KD of MS2 coat protein [1] | apparent KD of MS2 coat protein [2] | apparent KD of MS2 coat protein [3] | apparent KD of MS2 coat protein (input ligand: FMN 200 uM) | apparent KD of MS2 coat protein (input ligand: none) | apparent KD of MS2 coat protein [4]
CUGUAGCUACAAGCUUUUUGCACGUCAGGUAGUGACGCAACAUGAGGAUCACCCAUGUAUAGGGUGGGACAGGAUAG [JR_SV3TOV2_Sub049] (puzzle: Sensor v3, turn-off variant 2) | 443 nM | 153 nM | 495 nM |  |  | 
AAAUAGUUAGGAUAUACAUGAGGAUCACCCAUGUAGGGUUCCGUCAUGCAGAAAAUGCGUAGAAGGAACUAUCC [EX3 A.22] (Eterna round: R97, puzzle: Exclusion 3) |  |  |  | 16.6 nM | 17.6 nM | 
AACCUGAGGCUUUGCUUUAGGUGUACAUGAGGAUCACCCAUGUAGGAUAUGGUAGGCAAAGCUUACCAGAAGGACAUUGGCGUA [Mat - Exclusion NG 3 - Mod of JL - D40] (Eterna round: R96, puzzle: Exclusion NG 3) |  |  |  | 342 nM | 107 nM | 94.7 nM
UCGGCGCGAGGAUAUACGUUUGCUCUUUUUCGUUUUUGUGUACAUGAGGAUCACCCAUGUAGAAGGCGCGCCGC [Apr-15 SS2-19] (puzzle: Exclusion 2) |  | 17 nM |  |  |  | 
CCGGAUAUGCAGGAUAUCGUAUCGGAAACGAUACGAGAAGGGUAUACAUGAGGAUCACCCAUGUGCCUUACCGG [Fiskers Ex 6 - 19] (puzzle: Exclusion 6) |  | 16 nM |  |  |  | 
AGAAAUGCCCAUGGCCGCAAGCUUUUUACUUGUCUUACCACAUGAGGAUCACCCAUGUGACAUGGAUUCCUUAUGAU [Sensor v3, turn-off variant 2 (MOD of Oranla)] (puzzle: Sensor v3, turn-off variant 2) | 169 nM | 750 nM | 248 nM |  |  | 
GGUGCGUAUGUGAGGAUAUGCUGGUCCUUGGCUCGGCAGAAGGCACAUGAGGAUCACCCAUGUGGUGUCGUGCC [salish99_Bmod_ex4_056] (puzzle: Brourd's mod of Exclusion 4) |  | 15.3 nM |  |  |  | 
UUCUUACAUGAGGAUCACCCAUGUCAGGAUAUCUCCUCACUGCGCUUGCGCAGUGAAUAGAGAAGGGACAGGCU [JL ViennaUCT Aner mod 2] (puzzle: Exclusion 1) |  | 37.3 nM |  |  |  | 
CGGUGCUCGUGGAAACAUGAGGAUCACCCAUGUAGAGUUAGCGAGGAUAUCGGUAACACAUAUCACGAGAAGGCGCGAACCUGA [Ex NG3 #30] (Eterna round: R96, puzzle: Exclusion NG 3) |  |  |  | 27.8 nM | 16.3 nM | 11.7 nM
CUCCAUACAGGAUAUACAGGCGGUGGAGCCGUAUGAUCAACACAUGAGGAUCACCCAUGUAGAAGGGUGUGUAC [Eternabot (L2) Solution 25] (Eterna round: R97, puzzle: Exclusion 2) |  |  |  | 436 nM | 642 nM | 
CUGCUCCGUGUAGGAUAUCCAUGCAACCAAUAUGGAGAAGGACAUGAGGAUCACCCAUGUAUGUUAUUAUCACGUGAAGCGUCC [Design 23] (Eterna round: R96, puzzle: Exclusion NG 1) |  |  |  | 28.6 nM | 31.2 nM | 24 nM
UUCAGACAUGAGGAUCACCCAUGUGAGGAUAUGAUGCGAUCGUCGAAAGACGAUAGCAUCAGAAGGUACAAAUG [Fiskers Ex 1 - 19] (puzzle: Exclusion 1) |  | 61 nM |  |  |  | 
AGAUCAAUCACGAAAGUGAUUGAUCAAAUUAGUUUUUAAACAUGAGGAUCACCCAUGUCCUAGUGGGCUAGUCUUAU [Mat - Sensor v2 - var 2 - Mod - D142] (Eterna round: R96, puzzle: Sensor v2, turn-off variant 2) |  |  |  | 254 nM | 249 nM | 177 nM
CGCAUGUGAGGAUAUUAGUAGUAGUCAGAAUAGACUAUUACUGAGAAGGUACAUGAGGAUCACCCAUGUAUCCG [Eli x4 4.21] (Eterna round: R97, puzzle: Exclusion 4) |  |  |  | 28.5 nM | 17.1 nM | 
ACAUGAGGAUCACCCAUGUCCGGCUGGUCCGUCUCGGCUGUCGAGGAUAUAGCUUGGUGUCCGCGCUAGAAGGUGGGAGCUGGU [Aenatbe mod 69] (Eterna round: R96, puzzle: Exclusion NG 3) |  |  |  | 99.7 nM | 96.6 nM | 53.1 nM
AUCAGCUCGUCAGGAUAUACAUGAGGAUCACCCAUGUGGUCAAUAGCAGCUUCGGCUGCAUACAUGUAGAAGGGACGAGCUGAU [ENG2/7-B2] (Eterna round: R96, puzzle: Exclusion NG 2) |  |  |  | 28.4 nM | 101 nM | 894 nM

— the supplement of paper PMC9170038
